# B1: Hammerhead Ribozyme (parent)
# chain: ACCGGAUGUGCUUUCCGGUCUGAUGAGUCCGUGAGGACGAAACAG
# Variants of: B1
# Assay: self-cleavage, relative activity (ratio to wild type); higher = more cleavage; co-transcriptional
row,Variant,self-cleavage
1,A23C G25U,0.298
2,A23C G25C,0.37
3,A23C G25A,0.331
4,A23G A26U,0.3
5,A23G A26G,0.327
6,A23G A26C,0.263
7,A23U G31C,0.393
8,A23U G31A,0.631
9,A23U G31U,0.477
10,A23G G31C,0.442
11,A23G G31U,0.448
12,A23G G31A,0.403
13,A23C G39C,0.357
14,A23C G39U,0.371
15,A23C G39A,0.298
16,U24A A26C,0.602
17,U24A A26U,0.756
18,U24A A26G,0.332
19,A23G C30A,0.305
20,A23G C30G,0.248
21,A23G C30U,0.485
22,A23C A41G,0.394
23,A23C A41C,0.313
24,A23C A41U,0.361

row,Variant,self-cleavage
1,G22U A23C,0.284
2,G22U A23U,0.307
3,G22U A23G,0.297
4,A23G U28G,0.386
5,A23G U28C,0.327
6,A23G U28A,0.329
7,A23U G36C,0.327
8,A23U G36U,0.314
9,A23U G36A,0.375
10,G22U A34U,0.327
11,G22U A34G,0.308
12,G22U A34C,0.267
13,G22C A42G,0.265
14,G22C A42C,0.309
15,G22C A42U,0.368
16,A23U U24G,0.251
17,A23U U24C,0.45
18,A23U U24A,0.58
19,A23C G36C,0.351
20,A23C G36A,0.412
21,A23C G36U,0.335
22,G22U G33U,0.416
23,G22U G33A,0.307
24,G22U G33C,0.363

row,Variant,self-cleavage
1,G22U G39C,0.316
2,G22U G39A,0.35
3,G22U G39U,0.305
4,A23G A42U,0.335
5,A23G A42G,0.324
6,A23G A42C,0.31
7,A23G G33C,0.376
8,A23G G33A,0.465
9,A23G G33U,0.458
10,G22U A44C,0.432
11,G22U A44U,0.335
12,G22U A44G,0.711
13,A23U G45C,0.42
14,A23U G45U,0.461
15,A23U G45A,0.336
16,A23G G25U,0.321
17,A23G G25A,0.311
18,A23G G25C,0.333
19,G22U A40U,0.332
20,G22U A40G,0.288
21,G22U A40C,0.368
22,G22U U32C,0.272
23,G22U U32G,0.299
24,G22U U32A,0.282

row,Variant,self-cleavage
1,G22C G25A,0.409
2,G22C G25C,0.319
3,G22C G25U,0.432
4,G22C C30A,0.346
5,G22C C30U,0.36
6,G22C C30G,0.351
7,A23C U32C,0.509
8,A23C U32A,0.466
9,A23C U32G,0.383
10,G22C G33U,0.374
11,G22C G33C,0.381
12,G22C G33A,0.266
13,A23U A26G,0.304
14,A23U A26C,0.379
15,A23U A26U,0.374
16,A23U G33C,0.262
17,A23U G33A,0.524
18,A23U G33U,0.551
19,G22U A42C,0.359
20,G22U A42U,0.36
21,G22U A42G,0.285
22,A23C U28A,0.262
23,A23C U28G,0.398
24,A23C U28C,0.352

row,Variant,self-cleavage
1,A23U C30A,0.463
2,A23U C30U,0.402
3,A23U C30G,0.345
4,A23U U32A,0.376
5,A23U U32C,0.311
6,A23U U32G,0.41
7,G22U G45A,0.345
8,G22U G45C,0.348
9,G22U G45U,0.428
10,G22U C30G,0.277
11,G22U C30A,0.296
12,G22U C30U,0.344
13,A23C G31C,0.533
14,A23C G31U,0.647
15,A23C G31A,0.68
16,A23U A40U,0.371
17,A23U A40C,0.348
18,A23U A40G,0.237
19,A23U C29G,0.345
20,A23U C29A,0.352
21,A23U C29U,0.322
22,G22U G31C,0.303
23,G22U G31U,0.318
24,G22U G31A,0.397

row,Variant,self-cleavage
1,A23C G27U,0.256
2,A23C G27C,0.328
3,A23C G27A,0.341
4,A23G A41G,0.334
5,A23G A41C,0.34
6,A23G A41U,0.298
7,A23C C43G,0.274
8,A23C C43A,0.343
9,A23C C43U,0.325
10,A23C A42C,0.31
11,A23C A42U,0.331
12,A23C A42G,0.392
13,A23G G39A,0.301
14,A23G G39U,0.347
15,A23G G39C,0.33
16,A23U A41C,0.33
17,A23U A41G,0.301
18,A23U A41U,0.307
19,G22U A37U,0.296
20,G22U A37G,0.417
21,G22U A37C,0.3
22,A23C C30G,0.354
23,A23C C30U,0.578
24,A23C C30A,0.306

row,Variant,self-cleavage
1,G22U C29U,0.251
2,G22U C29G,0.317
3,G22U C29A,0.299
4,G22C G45C,0.424
5,G22C G45U,0.384
6,G22C G45A,0.328
7,A23G A44C,0.353
8,A23G A44U,0.339
9,A23G A44G,0.55
10,A23C G45A,0.302
11,A23C G45C,0.376
12,A23C G45U,0.377
13,G22C G35A,0.337
14,G22C G35C,0.336
15,G22C G35U,0.303
16,A23G A34C,0.338
17,A23G A34U,0.364
18,A23G A34G,0.35
19,A23U A37U,0.272
20,A23U A37G,0.422
21,A23U A37C,0.381
22,G22U A26C,0.345
23,G22U A26G,0.346

# Source: the RNAGym collection of RNA variant scans (doi:10.7554/elife.80360)
